Results published in the RNAGym collection of RNA variant scans (doi:10.1073/pnas.2313332121).
Fewer inactive variants are shown than the library holds.

B1: TPR 5TU (parent)
chain: GGAUCUUCUCGAUCUAACAAAAAAGACAAAUCUGCCACAAAGCUUGAGAGCAUCUUCGGAUGCAGAGGCGGCAGCCUUCGGUGGCGCGAUAGCGCCAACGUUCUCAACUAUGACACGCAAAACGCGUGCUCCGUUGAAUGGAGUUUAUCAUG

Variants of: B1
Assay: polymerase ribozyme fitness, log enrichment relative to wild type (log ratio); higher = more active; in vitro selection for triplet polymerase activity
In short: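 Fitness measures genotype enrichment against wild-type enrichment on a logarithmic scale, with inverse-variance-weighted averaging of replicates. The logarithm is base 2, and genotypes were kept only with ≥10 input reads and ≥1 read per output in Illumina sequencing. The sequenced libraries came from one triplicate in vitro selection round, including frozen incubation at −7 °C, of PCR-built, transcribed mutant libraries of each subunit of a heterodimeric triplet polymerase ribozyme.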

Variant	polymerase ribozyme fitness (log ratio)
A26U C69G A142U	-2.62
C27G G83A A89C	-3.98
U77G G81A A97G C99G U101C G141U A142G	≤ -4.2
C18G C38A C93U C105U A113C	-4.17
G42U G84U G117U C118G A142G	≤ -4.2
A41C C87A C95U A115C U151G	≤ -4.2
A49C G88U C96G A115U U148G	≤ -4.2
U7A A26C U31A G34C G70U U78G G117A C118U A119C	≤ -4.2
A26U A41C G71U C95A	≤ -4.2
U56A G65A G94C A150U	-1.57
A49C U56A A60U	≤ -4.2
U13C C38G U53A U82G G92A C105G C114U G128C U151C	≤ -4.2
A40G G50U U56A G83C	-4.02
A24G A30U G42U C72U A91G A120C	≤ -4.2
C10U C116U A147C	-3.39
A37C G86A C103A A120U	≤ -4.2
U9C C76U	-2.74
U6G A26G A29C A47U C63U G84A G136U G143C U151A	≤ -4.2
C18U A29U G68A C85U	≤ -4.2
C95U U111G	≤ -4.2
A20G C85U G94U C95G C125U	-3.59

Variant	polymerase ribozyme fitness (log ratio)
A47G G84C	-2.56
U4C C36U A49G A66U G83A C85G G88A C114U U146G	≤ -4.2
C5G U55G C85U C99A	-2.86
U90G G126U A147U	-3.95
A22C C57A A106G G141C	-0.358
U139A G143U U146G	-3.74
A17G G58A G59C C69U C95U U104A	-3.74
U15G C27A U146A	≤ -4.2
G50U A120U C125G	-0.502
C38U U148C	-1.36
C8U U15G A49G G59A A60G G70A G86C C93U A106G U135C	≤ -4.2
C32U C43U G92A U146G	≤ -4.2
C38G G42C U82G G86C G141C U144G	≤ -4.2
G50A U102A	-3.08
A19C A21U A40C A60C C96G A110G G136U	≤ -4.2
A40C C54A A89U G94U	-2.57
G50A G94U C116G	-1.85
U44C C96U C103G A115C	-4.19
A23G C36A C105A A107G U145A	≤ -4.2
U101A U109G C118U C125G A138G G141A	≤ -4.2
A29U C51G G58C G71A A91G C95A C103G U151A G152A	≤ -4.2

Variant	polymerase ribozyme fitness (log ratio)
A28U C32U G42C G84A A89G G92A C131A U148A	≤ -4.2
U45A C85A C87G C114A A137C	≤ -4.2
U53G A113U	-3.16
A40U A49C C72A C95U C99G A138C	≤ -4.2
C5G A20G C51U A106G	-1.64
A52G C93G G141C	-3.74
C10U C14G G34U U56G	≤ -4.2
U102C G136A	-0.705
A3U G83C	-0.632
G74A	-2.81
C96G U102C A121G G141A A150G	-4.15
A3G A17U A60U	-1.21
U4G C69G C96U A142C	-3.64
C38U A121C G136C A138U U148G	≤ -4.2
C18U G50C G88C C99U	≤ -4.2
A12U C87U A97U	-0.917
G50C G58U	-1.88
A17C A23U G59U G84A U90C U151A	≤ -4.2
C54A C87U	-3.48
A66U C96A U111A A122G A138C	≤ -4.2
C27G A37C U44A U45A C57U G68A G83A A119U A120U A147G	≤ -4.2

Variant	polymerase ribozyme fitness (log ratio)
U33A A91G	≤ -4.2
A47C C96U A107U	-3.57
U61A G126C	-0.89
A22U C35G C76G G92A C105U	≤ -4.2
G59C G67A C85A G112U	≤ -4.2
A21U A26C	-1.48
C85A U134C	-0.169
C57G C116A	1.35
C8G A17G G25A C54G G71C C87U U90A C96U C132U	≤ -4.2
A17U A29C C43G G86A U135C	-4.06
U7G A30G C32A A39U A60G C96U G126U G140U	-3.86
U44G G143C	≤ -4.2
A52G A73G C99U G117A	-1.7
U53A A73U	-2.21
A47C G74U A107G A122U	≤ -4.2
U9C G50C C75G C85G C125A	≤ -4.2
A16G C43A U53C G70A A73G	≤ -4.2
G83A C87U C123G A142G	-2.09
C5A G86U A107G G152A	≤ -4.2
U104A A137C	-3.89
